Assay results taken from patent EP4219720A2 (Caribou Biosciences, Inc., dated 2023).

Columns and labels:
[1] = molecular target: T1, Cas7, Cas6 and Cas5 of E. coli Type I-E Cascade with L3 crRNA (Escherichia coli K-12 MG1655, UniProt Q46899 2-363; Q46897 2-199; Q46898 1-224); experiment: co-expression in E. coli, Strep-Tactin capture by Strep-tag II on Cse2, SEC, Coomassie SDS-PAGE
T1 construct: They also hold the L3 crRNA; This grouping is mine
T1 sequence 1: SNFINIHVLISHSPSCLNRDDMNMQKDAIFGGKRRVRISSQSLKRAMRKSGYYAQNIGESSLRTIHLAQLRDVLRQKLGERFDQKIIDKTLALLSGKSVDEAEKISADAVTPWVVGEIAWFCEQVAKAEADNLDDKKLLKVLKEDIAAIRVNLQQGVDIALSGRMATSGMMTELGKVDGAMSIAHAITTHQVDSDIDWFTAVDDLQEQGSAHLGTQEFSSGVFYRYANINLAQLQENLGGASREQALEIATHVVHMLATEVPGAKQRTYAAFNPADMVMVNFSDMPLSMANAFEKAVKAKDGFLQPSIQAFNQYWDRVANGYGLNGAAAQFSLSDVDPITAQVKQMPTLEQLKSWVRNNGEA
T1 sequence 2: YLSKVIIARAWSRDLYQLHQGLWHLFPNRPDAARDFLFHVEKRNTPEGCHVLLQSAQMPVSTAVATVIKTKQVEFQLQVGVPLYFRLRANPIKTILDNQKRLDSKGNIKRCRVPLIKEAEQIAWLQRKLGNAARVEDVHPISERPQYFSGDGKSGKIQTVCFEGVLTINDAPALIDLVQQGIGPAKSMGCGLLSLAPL
T1 sequence 3: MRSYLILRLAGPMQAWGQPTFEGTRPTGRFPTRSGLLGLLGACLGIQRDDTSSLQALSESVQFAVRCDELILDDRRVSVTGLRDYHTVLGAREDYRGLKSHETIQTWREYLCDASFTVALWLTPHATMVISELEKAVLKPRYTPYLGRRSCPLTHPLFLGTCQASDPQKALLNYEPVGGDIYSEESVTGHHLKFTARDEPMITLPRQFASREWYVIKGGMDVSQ

[2] = molecular target: T2, CasBCDE complex (Strep-tag II-HRV3C-Cse2, Cas7, Cas5, Cas6) with J3/L3 crRNAs (Escherichia coli K-12 MG1655, UniProt Q46899 2-363; Q46898 1-224; Q46897 2-199); experiment: reconstitution from separately purified parts; tested by plasmid DNA cleavage
T2 construct: It also holds a crRNA (J3 or L3 guide), so it is a ribonucleoprotein; Removal of the Strep tag is not described; also called Cas8-less Cascade complex; Cas8-minus Cascade complex
T2 sequence 1: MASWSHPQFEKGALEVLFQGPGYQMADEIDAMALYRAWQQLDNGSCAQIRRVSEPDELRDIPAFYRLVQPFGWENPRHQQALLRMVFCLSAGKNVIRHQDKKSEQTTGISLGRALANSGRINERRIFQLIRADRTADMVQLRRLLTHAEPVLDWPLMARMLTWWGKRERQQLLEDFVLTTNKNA
T2 sequence 2: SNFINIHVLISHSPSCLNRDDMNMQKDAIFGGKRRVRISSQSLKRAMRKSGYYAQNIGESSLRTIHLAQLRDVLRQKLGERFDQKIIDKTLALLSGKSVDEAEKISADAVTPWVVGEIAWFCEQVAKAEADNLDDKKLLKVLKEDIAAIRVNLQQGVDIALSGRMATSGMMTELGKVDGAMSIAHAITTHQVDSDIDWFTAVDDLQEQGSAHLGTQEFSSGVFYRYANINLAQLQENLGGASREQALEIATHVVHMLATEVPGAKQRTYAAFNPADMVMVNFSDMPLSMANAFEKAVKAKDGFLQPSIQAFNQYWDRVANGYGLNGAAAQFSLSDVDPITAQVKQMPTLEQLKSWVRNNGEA
T2 sequence 3: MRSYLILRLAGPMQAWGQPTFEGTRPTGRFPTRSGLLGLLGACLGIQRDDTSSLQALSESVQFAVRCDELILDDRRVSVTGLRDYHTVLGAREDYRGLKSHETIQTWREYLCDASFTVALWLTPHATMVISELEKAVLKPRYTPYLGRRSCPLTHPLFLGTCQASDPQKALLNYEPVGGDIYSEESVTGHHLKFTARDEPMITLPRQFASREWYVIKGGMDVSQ
T2 sequence 4: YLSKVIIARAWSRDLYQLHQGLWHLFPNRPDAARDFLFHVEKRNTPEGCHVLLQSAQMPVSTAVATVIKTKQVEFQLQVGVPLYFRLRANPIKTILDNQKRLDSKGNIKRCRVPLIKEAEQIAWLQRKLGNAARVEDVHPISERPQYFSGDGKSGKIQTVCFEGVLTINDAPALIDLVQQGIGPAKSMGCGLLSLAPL

[3] = molecular target: T3, Cas8, Cas7, Cas6 and Cas5 of E. coli Type I-E Cascade with J3 crRNA (Escherichia coli K-12 MG1655, UniProt Q46901 1-502; Q46899 2-363; Q46897 2-199; Q46898 1-224); experiment: co-expression in E. coli, Ni-NTA capture by His6 on Cse2, SEC, Coomassie SDS-PAGE
T3 construct: They also hold the J3 crRNA; also called remaining Cascade subunits
T3 sequence 1: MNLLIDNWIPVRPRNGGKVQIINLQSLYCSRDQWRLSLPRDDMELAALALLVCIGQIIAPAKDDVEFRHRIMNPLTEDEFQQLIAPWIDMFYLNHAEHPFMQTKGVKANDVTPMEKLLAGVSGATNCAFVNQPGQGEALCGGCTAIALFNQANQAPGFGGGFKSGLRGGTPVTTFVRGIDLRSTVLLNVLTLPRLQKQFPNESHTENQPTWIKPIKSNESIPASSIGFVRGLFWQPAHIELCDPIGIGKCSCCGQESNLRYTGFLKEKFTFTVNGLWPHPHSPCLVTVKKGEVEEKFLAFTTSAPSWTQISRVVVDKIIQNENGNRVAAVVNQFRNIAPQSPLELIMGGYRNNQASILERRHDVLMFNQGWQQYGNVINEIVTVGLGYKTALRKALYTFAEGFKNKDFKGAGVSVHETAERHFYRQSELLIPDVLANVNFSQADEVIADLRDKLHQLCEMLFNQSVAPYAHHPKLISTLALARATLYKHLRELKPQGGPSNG
T3 sequence 2: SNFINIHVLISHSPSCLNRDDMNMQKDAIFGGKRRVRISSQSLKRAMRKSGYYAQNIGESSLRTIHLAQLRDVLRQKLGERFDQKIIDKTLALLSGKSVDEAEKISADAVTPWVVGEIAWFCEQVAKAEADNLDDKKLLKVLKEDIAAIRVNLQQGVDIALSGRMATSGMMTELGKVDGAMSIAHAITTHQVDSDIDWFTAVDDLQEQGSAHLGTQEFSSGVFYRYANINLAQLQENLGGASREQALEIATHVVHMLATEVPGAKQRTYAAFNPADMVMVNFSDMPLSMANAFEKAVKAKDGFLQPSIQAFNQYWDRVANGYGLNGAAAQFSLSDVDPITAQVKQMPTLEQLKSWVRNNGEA
T3 sequence 3: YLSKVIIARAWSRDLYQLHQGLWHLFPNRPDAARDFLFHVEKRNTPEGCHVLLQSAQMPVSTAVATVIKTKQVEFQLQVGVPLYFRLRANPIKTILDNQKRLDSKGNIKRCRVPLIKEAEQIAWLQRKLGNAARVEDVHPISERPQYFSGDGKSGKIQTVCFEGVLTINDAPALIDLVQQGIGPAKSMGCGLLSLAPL
T3 sequence 4: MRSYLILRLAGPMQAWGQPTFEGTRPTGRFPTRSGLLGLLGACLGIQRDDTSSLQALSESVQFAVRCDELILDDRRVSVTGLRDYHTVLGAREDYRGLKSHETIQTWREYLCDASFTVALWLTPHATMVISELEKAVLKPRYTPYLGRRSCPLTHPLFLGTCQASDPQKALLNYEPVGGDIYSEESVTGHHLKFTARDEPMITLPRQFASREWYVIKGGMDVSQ

B1: Strep-tag II-HRV3C-Cse2 (other)
chain: MASWSHPQFEKGALEVLFQGPGYQMADEIDAMALYRAWQQLDNGSCAQIRRVSEPDELRDIPAFYRLVQPFGWENPRHQQALLRMVFCLSAGKNVIRHQDKKSEQTTGISLGRALANSGRINERRIFQLIRADRTADMVQLRRLLTHAEPVLDWPLMARMLTWWGKRERQQLLEDFVLTTNKNA
notes: The tagged subunit by which the CasBCDE complex was captured on Strep-Tactin resin
[1]
  binding result: binds

B2: NLS-GGS-FokISharkey-30aa-linker-Cas8 (after TEV cleavage) (other)
chain: SNMPKKKRKVQLVKSELEEKKSELRHKLKYVPHEYIELIEIARNPTQDRILEMKVMEFFMKVYGYRGEHLGGSRKPDGAIYTVGSPIDYGVIVDTKAYSGGYNLPIGQADEMQRYVEENQTRNKHINPNEWWKVYPSSVTEFKFLFVSGHFKGNYKAQLTRLNHITNCNGAVLSVEELLIGGEMIKAGTLTLEEVRRKFNNGEINFSGSETPGTSESATPESGGSGSSGGSGSSGGMNLLIDNWIPVRPRNGGKVQIINLQSLYCSRDQWRLSLPRDDMELAALALLVCIGQIIAPAKDDVEFRHRIMNPLTEDEFQQLIAPWIDMFYLNHAEHPFMQTKGVKANDVTPMEKLLAGVSGATNCAFVNQPGQGEALCGGCTAIALFNQANQAPGFGGGFKSGLRGGTPVTTFVRGIDLRSTVLLNVLTLPRLQKQFPNESHTENQPTWIKPIKSNESIPASSIGFVRGLFWQPAHIELCDPIGIGKCSCCGQESNLRYTGFLKEKFTFTVNGLWPHPHSPCLVTVKKGEVEEKFLAFTTSAPSWTQISRVVVDKIIQNENGNRVAAVVNQFRNIAPQSPLELIMGGYRNNQASILERRHDVLMFNQGWQQYGNVINEIVTVGLGYKTALRKALYTFAEGFKNKDFKGAGVSVHETAERHFYRQSELLIPDVLANVNFSQADEVIADLRDKLHQLCEMLFNQSVAPYAHHPKLISTLALARATLYKHLRELKPQGGPSNG
notes: The tag was removed with TEV protease; also called Fokl-Cas8 fusion protein
[2]
  binding result: binds

B3: His6-HRV3C-Cse2 (other)
chain: MAEHHHHHHGALEVLFQGPGYQMADEIDAMALYRAWQQLDNGSCAQIRRVSEPDELRDIPAFYRLVQPFGWENPRHQQALLRMVFCLSAGKNVIRHQDKKSEQTTGISLGRALANSGRINERRIFQLIRADRTADMVQLRRLLTHAEPVLDWPLMARMLTWWGKRERQQLLEDFVLTTNKNA
notes: The tagged subunit by which the Cascade complex was captured on Ni-NTA resin
[3]
  binding result: binds
